Test results published in patent US7045613 (Amgen, dated 2006).

T1: Human IKK-α containing an N-terminal Flag epitope tag (human, UniProt O15111 1-745)
T1 construct: Transiently expressed in 293 cells for coimmunoprecipitation; also called IκB Kinase
T1 sequence: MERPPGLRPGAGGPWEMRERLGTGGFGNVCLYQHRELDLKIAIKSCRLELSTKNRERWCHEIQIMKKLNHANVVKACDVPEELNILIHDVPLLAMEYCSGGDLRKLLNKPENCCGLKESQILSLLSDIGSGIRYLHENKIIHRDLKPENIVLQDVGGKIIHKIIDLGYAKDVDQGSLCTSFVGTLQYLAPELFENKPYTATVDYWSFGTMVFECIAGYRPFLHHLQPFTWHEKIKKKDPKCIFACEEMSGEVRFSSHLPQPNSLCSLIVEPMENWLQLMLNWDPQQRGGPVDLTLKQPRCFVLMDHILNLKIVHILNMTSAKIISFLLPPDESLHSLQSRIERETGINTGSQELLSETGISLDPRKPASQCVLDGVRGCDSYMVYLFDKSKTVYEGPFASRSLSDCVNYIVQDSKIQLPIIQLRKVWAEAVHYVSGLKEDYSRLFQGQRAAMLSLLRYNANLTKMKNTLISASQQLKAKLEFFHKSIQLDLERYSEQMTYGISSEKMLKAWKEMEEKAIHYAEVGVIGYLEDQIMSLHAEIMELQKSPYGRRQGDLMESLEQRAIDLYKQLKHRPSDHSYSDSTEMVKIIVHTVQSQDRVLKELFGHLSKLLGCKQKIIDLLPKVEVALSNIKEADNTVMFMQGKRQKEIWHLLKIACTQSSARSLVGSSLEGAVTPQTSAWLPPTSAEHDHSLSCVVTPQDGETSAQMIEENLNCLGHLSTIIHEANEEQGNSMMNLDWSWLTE


Target: T1, Human IKK-α containing an N-terminal …
Assay: coimmunoprecipitation from 293 cell lysates, anti-Flag IP, anti-HA immunoblot
Description: Human IKK-α containing an N-terminal Flag epitope tag was transiently coexpressed in 293 human embryonic kidney cells with Myc epitope-tagged NIK or HA epitope-tagged TRAF proteins. Cell lysates were immunoprecipitated using a monoclonal antibody against the Flag epitope, and coprecipitating NIK or TRAF proteins were detected by immunoblot analysis with an anti-Myc or anti-HA monoclonal antibodies.

Row | Binder | binding result
1 | HA epitope-tagged TRAF3 (other, UniProt Q13114 1-568, looked up, not shown: small tags and cut ends, Transiently coexpressed in 293 cells) MESSKKMDSPGALQTNPPLKLHTDRSAGTPVFVPEQGGYKEKFVKTVEDKYKCEKCHLVLCSPKQTECGHRFCESCMAALLSSSSPKCTACQESIVKDKVFKDNCCKREILALQIYCRNESRGCAEQLMLGHLLVHLKNDCHFEELPCVRPDCKEKVLRKDLRDHVEKACKYREATCSHCKSQVPMIALQKHEDTDCPCVVVSCPHKCSVQTLLRSELSAHLSECVNAPSTCSFKRYGCVFQGTNQQIKAHEASSAVQHVNLLKEWSNSLEKKVSLLQNESVEKNKSIQSLHNQICSFEIEIERQKEMLRNNESKILHLQRVIDSQAEKLKELDKEIRPFRQNWEEADSMKSSVESLQNRVTELESVDKSAGQVARNTGLLESQLSRHDQMLSVHDIRLADMDLRFQVLETASYNGVLIWKIRDYKRRKQEAVMGKTLSLYSQPFYTGYFGYKMCARVYLNGDGMGKGTHLSLFFVIMRGEYDALLPWPFKQKVTLMLMDQGSSRRHLGDAFKPDPNSSSFKKPTGEMNIASGCPVFVAQTVLENGTYIKDDTIFIKVIVDTSDLPDP | no binding
2 | HA epitope-tagged TRAF2 (other, UniProt Q12933 1-501, looked up, not shown: small tags and cut ends, Transiently coexpressed in 293 cells) MAAASVTPPGSLELLQPGFSKTLLGTKLEAKYLCSACRNVLRRPFQAQCGHRYCSFCLASILSSGPQNCAACVHEGIYEEGISILESSSAFPDNAARREVESLPAVCPSDGCTWKGTLKEYESCHEGRCPLMLTECPACKGLVRLGEKERHLEHECPERSLSCRHCRAPCCGADVKAHHEVCPKFPLTCDGCGKKKIPREKFQDHVKTCGKCRVPCRFHAIGCLETVEGEKQQEHEVQWLREHLAMLLSSVLEAKPLLGDQSHAGSELLQRCESLEKKTATFENIVCVLNREVERVAMTAEACSRQHRLDQDKIEALSSKVQQLERSIGLKDLAMADLEQKVLEMEASTYDGVFIWKISDFARKRQEAVAGRIPAIFSPAFYTSRYGYKMCLRIYLNGDGTGRGTHLSLFFVVMKGPNDALLRWPFNQKVTLMLLDQNNREHVIDAFRPDVTSSSFQRPVNDMNIASGCPLFCPVSKMEAKNSYVRDDAIFIKAIVDLTGL | no binding
